Ki and pKa data for 5 compounds are collected here from PMC4587348 (Archives of biochemistry and biophysics, 2015).

Data set [1] concerns the target ScHIcDH (homoisocitrate dehydrogenase from Saccharomyces cerevisiae) (Saccharomyces cerevisiae, UniProt P40495, D271N). In words: initial rate, NADH formation at […] nm, dead-end inhibition. Type of data set: biochemical.
For the next data set, the system named is Tyr150. Nature of the data set: kinetics. The note with it: cited from earlier work.
A further data set deals with Lys206. Nature of the data set: kinetics. The note with it: Steady-state turnover at saturating reactants (V/Et); cited from earlier work.

Sequence of ScHIcDH (homoisocitrate dehydrogenase from Saccharomyces cerevisiae) (P40495 23-371 D271N): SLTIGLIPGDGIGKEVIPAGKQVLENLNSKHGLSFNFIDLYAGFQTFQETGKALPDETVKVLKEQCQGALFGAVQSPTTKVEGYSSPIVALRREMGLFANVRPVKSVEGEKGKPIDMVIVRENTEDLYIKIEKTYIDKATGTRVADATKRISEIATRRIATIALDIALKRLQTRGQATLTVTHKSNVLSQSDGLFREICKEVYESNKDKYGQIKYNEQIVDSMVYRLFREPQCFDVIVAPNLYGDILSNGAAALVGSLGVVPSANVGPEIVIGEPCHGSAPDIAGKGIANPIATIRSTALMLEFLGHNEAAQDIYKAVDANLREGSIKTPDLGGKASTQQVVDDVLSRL

Consider `CC(=O)c1ccc[n+]([C@@H]2O[C@H](COP(=O)([O-])OP(=O)(O)OC[C@H]3O[C@@H](n4cnc5c(N)ncnc54)[C@H](O)[C@@H]3OP(=O)(O)O)[C@@H](O)[C@H]2O)c1` [3-AcPyrADP], for which the affinity in data set [1] corresponds to a Ki of 0.34 ± 0.05 mM.

With `O=C(O)CS[C@H](C(=O)O)[C@@H](O)C(=O)O` [Thiahomoisocitrate], the Ki (commonly a dissociation constant, usually derived from enzyme kinetics or from competition with a known ligand) in data set [1] is 20 ± 3 mM.

On to “Homoisocitrate dehydrogenase (ScHIcDH) (Saccharomyces cerevisiae)”, for which the pKa (usually the pH at which an ionisable group is half protonated) with Tyr150 (Steady-state turnover. V profile: enzyme saturated with NAD and MgHIc.) is listed as 9.5.

Regarding “Homoisocitrate dehydrogenase (ScHIcDH) K206M mutant (Saccharomyces cerevisiae; K206M)”, in the data set on Tyr150 (Steady-state turnover at saturating reactants (V/Et)), the pKa is on record as 9.5.

On to “Homoisocitrate dehydrogenase (ScHIcDH) Y150F mutant (Saccharomyces cerevisiae; Y150F)”, for which, in the data set with Lys206, the pKa was 6.
